Measurements as given in paper PMC9751785, “Characterization and Identification of a novel chromosome-encoded metallo-β-lactamase WUS-1 in Myroides albus P34” (Frontiers in Microbiology, 2022).

Tests used:
WUS-1 = target: T1, WUS-1 (Myroides albus, UniProt A0A6I3LH21, K23R); assay: spectrophotometric imipenem hydrolysis, inhibition; type: biochemical
T1 construct: gene bla; mature domain, signal peptide removed (predicted cleavage between 19 and 20, Ala/Gln); pCold I in E. coli BL21, His-tag cut with thrombin; zinc enzyme

[1] = test system: CC1(C)S[C@@H]2[C@H](NC(=O)C(C(=O)O)c3ccccc3)C(=O)N2[C@H]1C(=O)O; assay: continuous spectrophotometric hydrolysis assay, Michaelis-Menten fit; type: biochemical, Myroides albus; conditions: 10 mM phosphate pH 7.4, 50 μM ZnCl2, 30 °C, SD within 15%
Text: (§1) continuous spectrophotometric hydrolysis assay, Michaelis-Menten fit on WUS-1

[2] = test system: CC1(C)S[C@@H]2[C@H](NC(=O)[C@H](C(=O)O)c3ccsc3)C(=O)N2[C@H]1C(=O)O; assay: as above; type: biochemical, Myroides albus; conditions: 10 mM phosphate pH 7.4, 50 μM ZnCl2, 30 °C, SD within 15%
Text: as §1

[3] = test system: CC1(C)S[C@@H]2[C@H](NC(=O)[C@H](N)c3ccccc3)C(=O)N2[C@H]1C(=O)O; assay: as above; type: biochemical, Myroides albus; conditions: 10 mM phosphate pH 7.4, 50 μM ZnCl2, 30 °C, SD within 15%
Text: as §1

[4] = test system: CO[C@@]1(NC(=O)Cc2cccs2)C(=O)N2C(C(=O)O)=C(COC(N)=O)CS[C@@H]21; assay: as above; type: biochemical, Myroides albus; conditions: 10 mM phosphate pH 7.4, 50 μM ZnCl2, 30 °C, SD within 15%
Text: as §1

[5] = test system: C[C@@H](O)[C@H]1C(=O)N2C(C(=O)O)=C(SCCN=CN)C[C@H]12; assay: as above; type: biochemical, Myroides albus; conditions: 10 mM phosphate pH 7.4, 50 μM ZnCl2, 30 °C, SD within 15%
Text: as §1

[6] = test system: C[C@@H](O)[C@H]1C(=O)N2C(C(=O)O)=C(S[C@@H]3CN[C@H](C(=O)N(C)C)C3)[C@H](C)[C@H]12; assay: as above; type: biochemical, Myroides albus; conditions: 10 mM phosphate pH 7.4, 50 μM ZnCl2, 30 °C, SD within 15%
Text: as §1

[7] = test system: Cc1nnc(SCC2=C(C(=O)O)N3C(=O)[C@@H](NC(=O)Cn4cnnn4)[C@H]3SC2)s1; assay: as above; type: biochemical, Myroides albus; conditions: 10 mM phosphate pH 7.4, 50 μM ZnCl2, 30 °C, SD within 15%
Text: as §1

T1 sequence (A0A6I3LH21 entry or part of it K23R): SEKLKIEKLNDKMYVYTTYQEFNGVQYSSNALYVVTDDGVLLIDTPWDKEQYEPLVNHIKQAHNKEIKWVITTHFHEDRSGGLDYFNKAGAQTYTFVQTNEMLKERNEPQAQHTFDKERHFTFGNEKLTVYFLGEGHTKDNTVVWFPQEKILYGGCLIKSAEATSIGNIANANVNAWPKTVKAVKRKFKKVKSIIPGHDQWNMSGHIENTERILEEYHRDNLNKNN

Compound: O=C(O)CN(CCN(CC(=O)O)CC(=O)O)CC(=O)O [EDTA]
- IC50 (WUS-1): 71.3 µM

Compound: WUS-1 (Myroides albus; K23R)
- Km [1]: 581 µM
- kcat [1]: 1120 s⁻¹
- kcat/Km [1]: 1.93e+06 M⁻¹ s⁻¹
- Km [2]: 827.4 µM
- kcat [2]: 703 s⁻¹
- kcat/Km [2]: 850000 M⁻¹ s⁻¹
- Km [3]: 290.2 µM
- kcat [3]: 2920 s⁻¹
- kcat/Km [3]: 1.01e+07 M⁻¹ s⁻¹
- Km [4]: 44.33 µM
- kcat [4]: 14.2 s⁻¹
- kcat/Km [4]: 320000 M⁻¹ s⁻¹
- Km [5]: 334.8 µM
- kcat [5]: 1340 s⁻¹
- kcat/Km [5]: 3.99e+06 M⁻¹ s⁻¹
- Km [6]: 147.4 µM
- kcat [6]: 477 s⁻¹
- kcat/Km [6]: 3.24e+06 M⁻¹ s⁻¹
- Km [7]: 59.86 µM
- kcat [7]: 33.9 s⁻¹
- kcat/Km [7]: 570000 M⁻¹ s⁻¹
